According to patent US20210301005A1:

What was measured:
[1] = biological target: human TGFβ1, mature receptor-binding domain (human) (UniProt P01137)
[2] = biological target: human TGFβ2, mature receptor-binding domain (human)
[3] = biological target: human TGFβ3, mature dimeric form (human) (UniProt P10600)
[4] = biological target: human TGFβ1, mature receptor-binding domain (human) (UniProt P01137); remark: listed apart in the source
[5] = biological target: human TGFβ2, mature receptor-binding domain (human); remark: listed apart in the source
[6] = biological target: human TGFβ3, mature dimeric form (human) (UniProt P10600); remark: listed apart in the source

Fc-LAP1, sequence (P01137 30-278 limits assumed): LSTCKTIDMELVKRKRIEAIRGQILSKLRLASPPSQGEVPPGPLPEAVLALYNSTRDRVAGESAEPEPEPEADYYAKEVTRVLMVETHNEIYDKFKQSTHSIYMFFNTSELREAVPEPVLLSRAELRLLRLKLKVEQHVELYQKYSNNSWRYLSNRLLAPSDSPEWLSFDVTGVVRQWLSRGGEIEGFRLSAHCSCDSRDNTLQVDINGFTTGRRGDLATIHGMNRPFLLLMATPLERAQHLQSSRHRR
human TGFβ2, mature receptor-binding domain (human), sequence (P09858 303-414 limits assumed): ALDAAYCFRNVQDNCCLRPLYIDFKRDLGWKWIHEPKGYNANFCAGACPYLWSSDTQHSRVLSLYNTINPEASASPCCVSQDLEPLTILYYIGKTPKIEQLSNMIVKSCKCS
human TGFβ1, mature receptor-binding domain (human), sequence (P01137 279-390 limits assumed): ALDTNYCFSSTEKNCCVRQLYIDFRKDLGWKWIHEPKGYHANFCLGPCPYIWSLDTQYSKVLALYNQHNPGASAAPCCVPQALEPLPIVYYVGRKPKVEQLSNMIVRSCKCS
human TGFβ3, mature dimeric form (human), sequence (P10600 301-412): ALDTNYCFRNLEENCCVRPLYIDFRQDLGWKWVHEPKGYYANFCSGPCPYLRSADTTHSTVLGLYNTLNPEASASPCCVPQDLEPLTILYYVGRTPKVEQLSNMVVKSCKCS

IC50 [1]: 96 nM | IC50 [2]: 64 nM | IC50 [3]: 43 nM | IC50 (read off the curve) [4]: 0.1 nM | IC50 (read off the curve) [5]: 0.07 nM | IC50 (read off the curve) [6]: 0.04 nM
Substance: Fc-LAP1 (from UniProt P01137 30-278) (Fc fusion)
